Legend:
[1] = biological target: T1, Nd nucleosomes (Homo sapiens, UniProt Q9UGN5); assay: Fluorescence microscopy of Nd nucleosomes binding to His-tagged WGR immobilized on Ni-NTA beads; parameters: species or system chicken; conditions: beads with immobilized His-tagged WGR vs without
T1 construct: WGR domain of PARP2 (residues 77–220) into pET-15b-TEV expression vector; made in house; host or cells: Escherichia coli Rosetta2 (DE3) pLysS
Protocol: The binding of nucleosomes to the WGR domain was confirmed after immobilization of the protein containing His-tag on the surface of Ni-NTA beads using fluorescence microscopy (Figure S6).
Figure S6. Confocal fluorescence (a, c, e) and transmitted-light (b, d, f) imaging of Ni-NTA beads with (a, b, e, f) or without
(c, d) immobilized 6 ×His-WGR. The beads were additionally incubated with Nd nucleosomes (a, b, c, d). The parameters of
measurements and intensity scales in fluorescent images(a, c, e)are the same. […]

[2] = biological target: T2, NP nucleosomes (Homo sapiens, UniProt Q9UGN5); assay: EMSA of WGR domain-nucleosome complexes (0.7% agarose gel); format: binding, chicken; conditions: no divalent cations or 2 mM Zn2+
T2 construct: WGR domain of PARP2 (residues 77–220) into pET-15b-TEV expression vector; 6xHis (pET-15b-TEV) (N, cleaved yes); made in house; host or cells: Escherichia coli Rosetta2 (DE3) pLysS (WGR)
Protocol: Sample preparation for EMSA was the same as for spFRET microscopy, although a slightly higher concentration of nucleosomes (2–3 nM) was used. […] Electrophoresis was performed under native conditions at 140 V, + 4 °C for ∼1.5 h. The gels were scanned using Amersham Typhoon RGB imager (Cytiva, Sweden). Fluorescence was excited in the gel at the 532 nm wavelength and recorded in the 570–610 nm (Cy3 signal) and 650–700 nm (FRET signal of Cy5) spectral regions. The resulting images were obtained in green (Cy3 signal) and red (FRET signal of Cy5) colors and merged.
Fig. 3 WGR domain of PARP2 binds zinc ions and reorganizes nucleosome structure. (a) A model of Zn^2+ binding to the WGR domain created on the basis of the PDB structure 6F5B. Two putative binding sites are shown. N- and C-terminal ends of the WGR domain are indicated. The numbering of the residues corresponds to the numbering of the complete PARP2 sequence. (b) CD spectra of the WGR domain (60 µM) in a buffer containing no divalent cations (Me^2+) or 0.5 mM Zn^2+ ions. (c) Content of canonical types of secondary structures in the WGR domain of PARP2 according to the analysis of CD spectra of the WGR domain measured in the absence or presence of 0.5 mM Zn^2+ ions. (d) Changes in the fluorescence spectra of tryptophan residues 148, 151 and 188 of the WGR domain (5 µM) at different concentrations of Zn^2+ ions. […]

B1: WGR domain: recombinant WGR domain of PARP2 (residues 77–220) expressed in Escherichia coli (protein, UniProt O88554 77-220, looked up, fragment)
chain: ECAAKLGKAHVYCEGDDVYDVMLNQTNLQFNNNKYYLIQLLEDDAQRNFSVWMRWGRVGKTGQHSLVTCSGDLNKAKEIFQKKFLDKTKNNWEDRENFEKVPGKYDMLQMDYAASTQDESKTKEEETLKPESQLDLRVQELLKL
modifications: WGR domain
notes: recombinant WGR domain of PARP2 (residues 77–220) expressed in Escherichia coli
binding of Nd nucleosomes to Ni-NTA beads [1]: strongly increased | binding of the WGR domain to nucleosomes [2]: binds to nucleosomes in the presence and absence of Zn^2+ ions
